Test results taken from IntAct's records for PubMed 36931259.

B1: 14-3-3 protein sigma (Homo sapiens), P31947 (parent)
chain: MERASLIQKAKLAEQAERYEDMAAFMKGAVEKGEELSCEERNLLSVAYKNVVGGQRAAWRVLSSIEQKSNEEGSEEKGPEVREYREKVETELQGVCDTVLGLLDSHLIKEAGDAESRVFYLKMKGDYYRYLAEVATGDDKKRIIDSARSAYQEAMDISKKEMPPTNPIRLGLALNFSVFHYEIANSPEEAISLAKTTFDEAMADLHTLSEDSYKDSTLIMQLLRDNLTLWTADNAGEEGGEAPQEPQS
partner: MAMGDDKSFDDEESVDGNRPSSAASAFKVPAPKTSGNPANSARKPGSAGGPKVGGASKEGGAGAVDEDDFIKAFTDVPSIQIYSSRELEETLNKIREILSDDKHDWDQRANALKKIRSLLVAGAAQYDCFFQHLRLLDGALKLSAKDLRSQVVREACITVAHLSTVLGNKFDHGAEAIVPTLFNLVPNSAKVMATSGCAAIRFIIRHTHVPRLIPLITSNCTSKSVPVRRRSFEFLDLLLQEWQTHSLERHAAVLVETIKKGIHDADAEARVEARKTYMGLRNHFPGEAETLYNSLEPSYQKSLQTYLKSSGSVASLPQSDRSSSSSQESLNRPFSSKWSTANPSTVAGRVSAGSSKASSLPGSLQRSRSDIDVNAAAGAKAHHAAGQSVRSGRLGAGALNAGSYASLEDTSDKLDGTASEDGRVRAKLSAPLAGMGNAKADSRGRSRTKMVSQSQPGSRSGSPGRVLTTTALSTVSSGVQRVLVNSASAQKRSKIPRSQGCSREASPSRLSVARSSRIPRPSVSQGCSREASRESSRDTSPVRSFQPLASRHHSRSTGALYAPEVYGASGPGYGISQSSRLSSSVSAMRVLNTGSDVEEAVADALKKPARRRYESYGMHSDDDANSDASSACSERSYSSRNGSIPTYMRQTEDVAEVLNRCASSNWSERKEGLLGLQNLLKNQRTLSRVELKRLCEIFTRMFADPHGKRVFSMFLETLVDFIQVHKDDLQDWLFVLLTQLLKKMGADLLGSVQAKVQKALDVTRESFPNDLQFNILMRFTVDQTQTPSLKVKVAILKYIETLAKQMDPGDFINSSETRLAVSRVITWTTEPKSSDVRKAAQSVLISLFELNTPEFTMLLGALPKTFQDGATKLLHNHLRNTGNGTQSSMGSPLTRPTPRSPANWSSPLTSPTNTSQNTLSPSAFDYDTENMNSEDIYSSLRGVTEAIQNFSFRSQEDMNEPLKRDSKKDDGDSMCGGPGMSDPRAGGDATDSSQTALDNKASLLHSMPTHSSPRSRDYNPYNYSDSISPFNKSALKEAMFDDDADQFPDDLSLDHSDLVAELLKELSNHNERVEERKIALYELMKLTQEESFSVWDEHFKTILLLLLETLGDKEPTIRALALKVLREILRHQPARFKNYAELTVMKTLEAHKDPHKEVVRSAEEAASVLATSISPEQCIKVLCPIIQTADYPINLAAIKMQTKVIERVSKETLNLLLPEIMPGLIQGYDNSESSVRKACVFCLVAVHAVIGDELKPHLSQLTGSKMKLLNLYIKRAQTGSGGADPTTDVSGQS
B2: Protein Smaug homolog 1 (Homo sapiens), Q9UPU9 (parent)
chain: MMFRDQVGVLAGWFKGWNECEQTVALLSLLKRVSQTQARFLQLCLEHSLADCAELHVLEREANSPGIINQWQQESKDKVISLLLTHLPLLKPGNLDAKVEYMKLLPKILAHSIEHNQHIEESRQLLSYALIHPATSLEDRSALAMWLNHLEDRTSTSFGGQNRGRSDSVDYGQTHYYHQRQNSDDKLNGWQNSRDSGICINASNWQDKSMGCENGHVPLYSSSSVPTTINTIGTSTSTILSGQAHHSPLKRSVSLTPPMNVPNQPLGHGWMSHEDLRARGPQCLPSDHAPLSPQSSVASSGSGGSEHLEDQTTARNTFQEEGSGMKDVPAWLKSLRLHKYAALFSQMTYEEMMALTECQLEAQNVTKGARHKIVISIQKLKERQNLLKSLERDIIEGGSLRIPLQELHQMILTPIKAYSSPSTTPEARRREPQAPRQPSLMGPESQSPDCKDGAAATGATATPSAGASGGLQPHQLSSCDGELAVAPLPEGDLPGQFTRVMGKVCTQLLVSRPDEENISSYLQLIDKCLIHEAFTETQKKRLLSWKQQVQKLFRSFPRKTLLDISGYRQQRNRGFGQSNSLPTAGSVGGGMGRRNPRQYQIPSRNVPSARLGLLGTSGFVSSNQRNTTATPTIMKQGRQNLWFANPGGSNSMPSRTHSSVQRTRSLPVHTSPQNMLMFQQPEFQLPVTEPDINNRLESLCLSMTEHALGDGVDRTSTI
partner: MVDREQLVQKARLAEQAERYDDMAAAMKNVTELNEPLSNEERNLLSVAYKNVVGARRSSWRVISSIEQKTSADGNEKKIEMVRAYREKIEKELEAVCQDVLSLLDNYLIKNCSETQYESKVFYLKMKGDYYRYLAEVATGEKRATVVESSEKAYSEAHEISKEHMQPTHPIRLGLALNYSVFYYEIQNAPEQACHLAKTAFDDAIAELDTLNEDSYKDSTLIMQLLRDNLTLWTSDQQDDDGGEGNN
B3: Kinesin-like protein KIF1C (Homo sapiens), O43896 (parent)
chain: MAGASVKVAVRVRPFNARETSQDAKCVVSMQGNTTSIINPKQSKDAPKSFTFDYSYWSHTSTEDPQFASQQQVYRDIGEEMLLHAFEGYNVCIFAYGQTGAGKSYTMMGRQEPGQQGIVPQLCEDLFSRVSENQSAQLSYSVEVSYMEIYCERVRDLLNPKSRGSLRVREHPILGPYVQDLSKLAVTSYADIADLMDCGNKARTVAATNMNETSSRSHAVFTIVFTQRCHDQLTGLDSEKVSKISLVDLAGSERADSSGARGMRLKEGANINKSLTTLGKVISALADMQSKKRKSDFIPYRDSVLTWLLKENLGGNSRTAMIAALSPADINYEETLSTLRYADRTKQIRCNAIINEDPNARLIRELQEEVARLRELLMAQGLSASALEGLKTEEGSVRGALPAVSSPPAPVSPSSPTTHNGELEPSFSPNTESQIGPEEAMERLQETEKIIAELNETWEEKLRKTEALRMEREALLAEMGVAVREDGGTVGVFSPKKTPHLVNLNEDPLMSECLLYHIKDGVTRVGQVDMDIKLTGQFIREQHCLFRSIPQPDGEVVVTLEPCEGAETYVNGKLVTEPLVLKSGNRIVMGKNHVFRFNHPEQARLERERGVPPPPGPPSEPVDWNFAQKELLEQQGIDIKLEMEKRLQDLENQYRKEKEEADLLLEQQRLYADSDSGDDSDKRSCEESWRLISSLREQLPPTTVQTIVKRCGLPSSGKRRAPRRVYQIPQRRRLQGKDPRWATMADLKMQAVKEICYEVALADFRHGRAEIEALAALKMRELCRTYGKPDGPGDAWRAVARDVWDTVGEEEGGGAGSGGGSEEGARGAEVEDLRAHIDKLTGILQEVKLQNSSKDRELQALRDRMLRMERVIPLAQDHEDENEEGGEVPWAPPEGSEAAEEAAPSDRMPSARPPSPPLSSWERVSRLMEEDPAFRRGRLRWLKQEQLRLQGLQGSGGRGGGLRRPPARFVPPHDCKLRFPFKSNPQHRESWPGMGSGEAPTPLQPPEEVTPHPATPARRPPSPRRSHHPRRNSLDGGGRSRGAGSAQPEPQHFQPKKHNSYPQPPQPYPAQRPPGPRYPPYTTPPRMRRQRSAPDLKESGAAV
partner: B2 partner
B4: 14-3-3 protein sigma (Homo sapiens), P31947 (parent)
chain: B1 chain
partner: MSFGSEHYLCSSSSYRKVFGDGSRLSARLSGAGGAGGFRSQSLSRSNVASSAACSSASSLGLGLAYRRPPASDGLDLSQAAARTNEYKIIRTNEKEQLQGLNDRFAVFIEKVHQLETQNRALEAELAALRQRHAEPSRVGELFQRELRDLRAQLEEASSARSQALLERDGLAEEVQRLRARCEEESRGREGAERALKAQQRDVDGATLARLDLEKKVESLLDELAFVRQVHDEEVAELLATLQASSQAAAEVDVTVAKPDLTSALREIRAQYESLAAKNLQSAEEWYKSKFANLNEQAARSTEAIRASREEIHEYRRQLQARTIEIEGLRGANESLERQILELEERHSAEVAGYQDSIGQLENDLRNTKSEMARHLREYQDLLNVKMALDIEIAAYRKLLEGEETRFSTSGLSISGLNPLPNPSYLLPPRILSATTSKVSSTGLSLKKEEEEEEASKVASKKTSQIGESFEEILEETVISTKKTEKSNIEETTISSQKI
B5: 14-3-3 protein sigma (Homo sapiens), P31947 (parent)
chain: B1 chain
partner: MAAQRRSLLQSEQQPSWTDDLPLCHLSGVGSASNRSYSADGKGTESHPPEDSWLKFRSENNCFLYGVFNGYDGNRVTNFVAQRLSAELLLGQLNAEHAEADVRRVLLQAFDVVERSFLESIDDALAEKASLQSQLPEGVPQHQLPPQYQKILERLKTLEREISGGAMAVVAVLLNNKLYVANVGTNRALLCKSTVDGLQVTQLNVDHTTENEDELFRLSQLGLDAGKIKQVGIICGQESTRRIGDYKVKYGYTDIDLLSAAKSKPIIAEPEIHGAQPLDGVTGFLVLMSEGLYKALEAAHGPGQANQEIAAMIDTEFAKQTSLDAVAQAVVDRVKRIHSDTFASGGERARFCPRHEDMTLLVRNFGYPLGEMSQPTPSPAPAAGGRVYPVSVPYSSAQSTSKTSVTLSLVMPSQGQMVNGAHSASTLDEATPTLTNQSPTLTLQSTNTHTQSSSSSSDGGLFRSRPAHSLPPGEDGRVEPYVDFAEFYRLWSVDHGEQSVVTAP

Variants of: B1
Settings: with clap2_human CLASP2, O75122

Row | effect of a mutation on the interaction | Variant
1 | decreasing interaction strength | MERASLIQKAKLAEQAERYEDMAAFMKGAVEKGEELSCEERNLLSVAYENVVGGQEAAWRVLSSIEQKSNEEGSEEKGPEVREYREKVETELQGVCDTVLGLLDSHLIKEAGDAESRVFYLKMKGDYYRYLAEVATGDDKKRIIDSARSAYQEAMDISKKEMPPTNPIRLGLALNFSDFHYEIANSPEEAISLAKTTFDEAMADLHTLSEDSYKDSTLIMQLLRDNLTLWTADNAGEEGGEAPQEPQS [K49E;R56E;V178D]

Variants of: B2
Settings: with 1433g_human YWHAG

Row | effect of a mutation on the interaction | Variant
2 | decreasing interaction strength | S168A;S183A;S254A;S580A;S665A;T717A

Variants of: B3
Settings: with 1433g_human YWHAG

Row | effect of a mutation on the interaction | Variant
3 | disrupting interaction strength | S915A;S1033A;S1092A

Variants of: B4
Settings: with ainx_human INA

Row | effect of a mutation on the interaction | Variant
4 | decreasing interaction strength | MERASLIQKAKLAEQAERYEDMAAFMKGAVEKGEELSCEERNLLSVAYENVVGGQEAAWRVLSSIEQKSNEEGSEEKGPEVREYREKVETELQGVCDTVLGLLDSHLIKEAGDAESRVFYLKMKGDYYRYLAEVATGDDKKRIIDSARSAYQEAMDISKKEMPPTNPIRLGLALNFSDFHYEIANSPEEAISLAKTTFDEAMADLHTLSEDSYKDSTLIMQLLRDNLTLWTADNAGEEGGEAPQEPQS [K49E;R56E;V178D]

Variants of: B5
Settings: with tab1_human TAB1, Q15750

Row | effect of a mutation on the interaction | Variant
5 | decreasing interaction strength | MERASLIQKAKLAEQAERYEDMAAFMKGAVEKGEELSCEERNLLSVAYENVVGGQEAAWRVLSSIEQKSNEEGSEEKGPEVREYREKVETELQGVCDTVLGLLDSHLIKEAGDAESRVFYLKMKGDYYRYLAEVATGDDKKRIIDSARSAYQEAMDISKKEMPPTNPIRLGLALNFSDFHYEIANSPEEAISLAKTTFDEAMADLHTLSEDSYKDSTLIMQLLRDNLTLWTADNAGEEGGEAPQEPQS [K49E;R56E;V178D]
